Biological target: CID1R^ML (maximum likelihood reconstructed ancestral CID from the time of the first whole genome duplication)
Assay: ITC

Kd: 2900 ± 100 nM
Binder: TPPQALQQLLQTLKSPSSPQQQQQVLQILKSNPQLMAAFIKQRSQHQQ (domain or fragment) [NCBDD/P of the ITC example in Figure S1e (label lost)]
